{"source": "paper PMC7873571", "binders": {"B1": {"name": "biotinylated GLI1 consensus dsDNA (SPR) (dsDNA)", "DNA 1": "ACGTGGACCACCCAAGACGAA", "DNA 2": "TTTCGTCTTGGGTGGTCCACGT"}}, "target": "Gli1 (from hisSUMO-Gli1, Addgene 87225, His-SUMO tag cleaved) (UniProt P08151 234-388)", "sequence (P08151 234-388)": "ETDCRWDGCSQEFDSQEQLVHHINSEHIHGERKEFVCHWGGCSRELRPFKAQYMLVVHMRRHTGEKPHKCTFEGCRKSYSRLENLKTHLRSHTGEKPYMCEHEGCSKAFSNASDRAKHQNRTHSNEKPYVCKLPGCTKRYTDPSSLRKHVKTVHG", "test": "SPR", "data": [{"binder": "B1", "values": [{"measurement": "binding result", "result": "binds"}]}]}
